# T1: rMATR3 RRMs (UniProt P43243 362-592)
# T1 sequence: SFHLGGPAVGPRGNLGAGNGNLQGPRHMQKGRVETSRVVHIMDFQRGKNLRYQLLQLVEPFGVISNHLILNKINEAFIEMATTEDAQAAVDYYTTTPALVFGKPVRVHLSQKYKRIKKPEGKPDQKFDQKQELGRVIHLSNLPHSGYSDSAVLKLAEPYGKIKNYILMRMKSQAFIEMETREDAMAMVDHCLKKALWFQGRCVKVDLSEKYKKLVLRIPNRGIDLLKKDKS
# Experiments:
# [1] = biological target: T1, rMATR3 RRMs; assay: UV crosslinking competition; competes with 0.5 uM rPTBP1 at equimolar concentration; 30 C 20 min, 10 fmol RNA, UV crosslink on ice (1920 mJ), RNase A1/T1 digestion, 15% denaturing PAGE; buffer, salt and pH not stated; settings: protein: recombinant; (HisTrap purified); label: 32P-UTP
# [2] = biological target: rPTBP1;rMATR3 PRI-RRMs (human?;human?, UniProt P26599;P43243 1-557;341-592, |); assay: UV crosslinking; PTBP1 crosslinking retained at excess rMATR3; heteromeric complex; 30 C 20 min, 10 fmol RNA, UV crosslink on ice (1920 mJ), RNase A1/T1 digestion, 15% denaturing PAGE; buffer, salt and pH not stated; settings: protein: recombinant;recombinant; (HisTrap purified); copies: 1;1; label: 32P-UTP
# Chain of rPTBP1;rMATR3 PRI-RRMs (P26599 whole entry, one chain of several): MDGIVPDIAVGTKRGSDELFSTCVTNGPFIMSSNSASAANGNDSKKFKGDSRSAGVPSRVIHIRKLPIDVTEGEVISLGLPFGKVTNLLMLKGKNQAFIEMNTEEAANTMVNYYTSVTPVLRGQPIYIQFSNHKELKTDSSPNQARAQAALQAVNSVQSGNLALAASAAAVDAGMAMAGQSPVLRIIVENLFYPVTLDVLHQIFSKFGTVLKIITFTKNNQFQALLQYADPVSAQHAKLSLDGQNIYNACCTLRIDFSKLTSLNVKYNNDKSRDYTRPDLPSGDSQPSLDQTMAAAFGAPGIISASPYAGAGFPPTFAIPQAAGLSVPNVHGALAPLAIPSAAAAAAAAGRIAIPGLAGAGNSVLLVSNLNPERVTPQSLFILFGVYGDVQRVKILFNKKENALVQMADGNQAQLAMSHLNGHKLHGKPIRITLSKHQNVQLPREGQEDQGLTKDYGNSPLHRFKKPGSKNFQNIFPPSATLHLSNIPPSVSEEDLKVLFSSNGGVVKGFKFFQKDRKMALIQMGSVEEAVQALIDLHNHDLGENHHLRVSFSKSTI
binder,measurement,setting,value
ATCTT2 RNA probe (ssRNA) RNA: GAAUACGAAUUCCAUAUAUGAUCGAUAAAUAUAUGGUACCUUGCUAUCUUACAUCUUUUUACGGAUCCCAUAUAUGAUCGAUAUAUAUAAGCU,binding result,[1],binds
same,binding result,[2],binds

# Reference: publication PMC6108849, “Heteromeric RNP Assembly at LINEs Controls Lineage-Specific RNA Processing”
